Measured values taken from the Human Domainome abundance scans (Beltran et al. 2025).
± gives the uncertainty stated by the source.

B1: KAT8 regulatory NSL complex subunit 2, residues 28 to 91; numbered along this chain, Q9H9L4 (parent)
chain: CAFTHRPCSHPRLEGQEFCIKHILEDKNAPFKQCSYISTKNGKRCPNAAPKPEKKDGVSFCAEH
B2: Syntaxin-binding protein 4, residues 493 to 538; numbered along this chain, Q6ZWJ1 (parent)
chain: LDMDCLPYGWEEAYTADGIKYFINHVTQTTSWIHPVMSVLNLSRSE

Variants of: B1
Experiment: abundance fitness (aPCA) (normalised: wild type 0, dead -1); higher = more abundant; growth selection in yeast, the domain comes from the species named
Conditions: Homo sapiens

Variant	abundance fitness
DAFTHRPCSHPRLEGQEFCIKHILEDKNAPFKQCSYISTKNGKRCPNAAPKPEKKDGVSFCAEH [C1D]	-0.896 ± 0.17
MAFTHRPCSHPRLEGQEFCIKHILEDKNAPFKQCSYISTKNGKRCPNAAPKPEKKDGVSFCAEH [C1M]	-0.576 ± 0.16
AAFTHRPCSHPRLEGQEFCIKHILEDKNAPFKQCSYISTKNGKRCPNAAPKPEKKDGVSFCAEH [C1A]	-0.343 ± 0.27
GAFTHRPCSHPRLEGQEFCIKHILEDKNAPFKQCSYISTKNGKRCPNAAPKPEKKDGVSFCAEH [C1G]	-0.604 ± 0.15
IAFTHRPCSHPRLEGQEFCIKHILEDKNAPFKQCSYISTKNGKRCPNAAPKPEKKDGVSFCAEH [C1I]	-0.287 ± 0.34
EAFTHRPCSHPRLEGQEFCIKHILEDKNAPFKQCSYISTKNGKRCPNAAPKPEKKDGVSFCAEH [C1E]	-0.322 ± 0.09
KAFTHRPCSHPRLEGQEFCIKHILEDKNAPFKQCSYISTKNGKRCPNAAPKPEKKDGVSFCAEH [C1K]	-0.155 ± 0.15
LAFTHRPCSHPRLEGQEFCIKHILEDKNAPFKQCSYISTKNGKRCPNAAPKPEKKDGVSFCAEH [C1L]	-0.886 ± 0.14

Variants of: B2
Experiment: as above
Conditions: Homo sapiens

Variant	abundance fitness
Y21R	-0.962 ± 0.1
Y21W	-0.674 ± 0.099
M37L	-0.085 ± 0.092
M37Q	0.397 ± 0.12
I19F	-0.352 ± 0.12
I19S	0.634 ± 0.083
I19V	0.054 ± 0.076
P35W	-0.775 ± 0.16
P35M	-0.814 ± 0.14
P35V	-0.882 ± 0.1
N41P	-0.38 ± 0.11
N41S	-0.227 ± 0.09
T30V	-0.691 ± 0.096
T30I	-0.936 ± 0.16
Q28F	-0.422 ± 0.14
Q28R	-0.316 ± 0.086
Q28K	-0.027 ± 0.13
P7E	-0.711 ± 0.098
C5W	-0.533 ± 0.1
C5N	-0.254 ± 0.12
C5R	-0.18 ± 0.078
N24T	-0.909 ± 0.18
N24F	-0.835 ± 0.21

Variant	abundance fitness
E12C	-0.496 ± 0.1
E12A	-0.767 ± 0.1
E12M	-0.361 ± 0.12
V36E	0.44 ± 0.093
V36H	0.224 ± 0.14
L1K	0.331 ± 0.23
L1T	-0.004 ± 0.27
L1N	-0.101 ± 0.39
L1M	0.148 ± 0.13
L1F	-0.163 ± 0.17
F22I	-0.728 ± 0.16
F22A	-0.956 ± 0.11
G18P	-0.834 ± 0.12
G18W	-0.493 ± 0.091
G18V	-0.867 ± 0.095
W10F	-0.796 ± 0.14
W10P	-0.741 ± 0.1
V39L	-0.386 ± 0.097
S38F	-0.531 ± 0.13
S38T	-0.75 ± 0.13
M3C	0.117 ± 0.089
M3I	-0.425 ± 0.11
M3F	-0.069 ± 0.13

Variant	abundance fitness
M3D	-0.103 ± 0.096
M3E	0.144 ± 0.088
H25T	0.033 ± 0.18
H25S	-0.006 ± 0.11
H25V	-0.67 ± 0.11
H25D	-1.1 ± 0.22
D4C	-0.354 ± 0.11
D4R	-0.545 ± 0.083
D4G	-0.348 ± 0.077
D4I	-0.639 ± 0.17
T27A	-0.513 ± 0.096
T27L	0.644 ± 0.091
T27Q	-0.344 ± 0.14
T27F	0.071 ± 0.25
Y8T	-0.122 ± 0.086
Y8C	-0.425 ± 0.093
W32D	-0.539 ± 0.16
W32K	-0.576 ± 0.12
W32T	-0.872 ± 0.15
W32E	-0.628 ± 0.12
W32M	-0.151 ± 0.12
W32Q	-0.86 ± 0.25
Y14E	-0.513 ± 0.11

Variant	abundance fitness
Y14S	-0.462 ± 0.08
Y14H	-0.575 ± 0.11
Y14C	-0.586 ± 0.1
A16E	-0.118 ± 0.15
A16Q	-0.182 ± 0.12
L40F	-0.304 ± 0.14
L40I	-0.816 ± 0.16
G9P	-0.397 ± 0.092
G9Y	-0.826 ± 0.14
G9Q	-0.908 ± 0.13
S31D	-0.89 ± 0.19
T29L	-0.969 ± 0.12
T29V	0.766 ± 0.1
T29C	0.271 ± 0.12
T29I	0.226 ± 0.1
H34K	-0.686 ± 0.15
H34W	-1.11 ± 0.15
A13I	-0.998 ± 0.21
A13G	-0.746 ± 0.081
A13S	-0.5 ± 0.088
A13Y	-0.914 ± 0.21
A13D	-1.11 ± 0.18
L6I	-0.965 ± 0.2

Variant	abundance fitness
L6T	-0.737 ± 0.12
L6Y	-0.709 ± 0.16
L6K	-0.266 ± 0.11
L6E	-0.541 ± 0.1
I33M	-0.091 ± 0.15
I33P	-0.897 ± 0.15
I33L	-0.245 ± 0.089
I33R	-0.481 ± 0.094
I33Y	-0.162 ± 0.17
D2N	-0.388 ± 0.094
D2Q	-0.48 ± 0.12
D2K	-0.269 ± 0.14
S43R	-0.17 ± 0.094
S43N	0.116 ± 0.16
R44K	-0.162 ± 0.14
R44C	0.016 ± 0.11
R44H	-0.287 ± 0.15
R44V	-0.147 ± 0.085
R44S	0.096 ± 0.087
R44D	0.169 ± 0.12
R44W	-0.527 ± 0.15
T15W	-0.814 ± 0.096
T15K	-0.938 ± 0.13

Variant	abundance fitness
T15I	-0.772 ± 0.1
T15R	-0.698 ± 0.077
T15H	-0.881 ± 0.16
E11P	-0.78 ± 0.11
E11A	-0.747 ± 0.091
E11L	-0.771 ± 0.089
E11K	-0.535 ± 0.11
L42H	0.52 ± 0.14
L42P	-0.304 ± 0.14
K20I	-0.853 ± 0.19
K20R	-0.198 ± 0.075
K20N	-0.54 ± 0.19
K20C	-0.753 ± 0.1
K20H	-0.444 ± 0.18
V26M	-0.29 ± 0.11
V26W	-0.846 ± 0.12
V26K	-0.29 ± 0.27
V26H	0.137 ± 0.14
V26S	-0.07 ± 0.098
V26Q	-0.004 ± 0.2
I23G	-0.889 ± 0.092
S45D	-0.06 ± 0.14
S45E	0.092 ± 0.18
